Test results reported in patent publication US20260209316A1 (US Dept. of Health and Human Services, published 2026).

B1: antibody 573S (antibody, V domains shown)
VH: EVQLVESGGGLVKPGGSLRLSCAASGFTFSSYTMNWVRQAPGKGLEWVSCIRSSSSDKYYADSVKGRFTISRDNTKNSLYLQMNSLRADDTAVYYCARDLGGANNRYYFDYGMDVWGQGTTVTVSS
VL: EIVMTQSPATLSVSPGGRATLSCRASQSVYTNLAWYQQKPGQAPRLLIYDASTRATGIPARFSGSGSGTEFTLTISSLQCEDFAVYYCQHYNNWPLYTFGQGTKLEIK
B2: antibody 541S (antibody, V domains shown)
VH: QVQLVQSGAEVKKPGASVKVSCKASGYTFTNYAITWVRQAPGQGLEWMGWISAFNGQINYAQKFQGRVAMTTDTSTSTAYMELRSLRSDDTAVYYCARAPPMWFSGAKFDYWGQGTLVTVSS
VL: QSVLTQPPSVSGTPGQRVTISCSGSSSNIGSNTVNWYQQLPGTAPKLLIYSNDQRPSGVPDRFSGSKSGTSASLAISGLRSEDEADYYCAAWDETLRRVFGGGTRLTVL
B3: antibody 523S (antibody, V domains shown)
VH: QVQLVQSGAELKKPGASVKVSCKASGYTFSDHYVHWVRQAPGQGLEWMGRINPNSGGTNYAQRFLGRVTMTRDASISTAYLDLSSLRSDDTAVYYCARSSSSWSGHYYYYMDVWGKGTTVTVSS
VL: QSVLTQPPSVSAAPGQRVTISCSGSTSNIASNFVSWYQQLPGTAPKLLIYDNHKRPSGIPDRFSGSKSGTSATLGITGLQTGDEADYYCGTWDSSLSAGVFGGGTKVTVLG
B4: antibody 338S (antibody, V domains shown)
VH: EVQLVESGGGVVQPGRSLRLSCAASGFTFSQYGMHWVRQAPGKGLECVAVIWFDGSKKYYGDSVKGRFTISRDNSKNTLYLQMNSLRAEDTAVYFCARESLYYYDSGGHYYERGRIDYWGQGTLVTVSS
VL: DIQMTQSPSSLSASVGDRVTITCRASQDISNFLAWFQQKPGKAPKSLIYAASSLLSGVPSKFSGSGSGTDFTLTISSLQPEDFATYYCQQYNSYPPTFGQGTKLEIK
B5: antibody 377S (antibody, V domains shown)
VH: QVQLVQSGAEVKKPGSSVKVSCKASGGTFSNYAINWVRQAPGQGLEWMGRTIPFLGLTNYAENFQARVTITADKSTGTSYMQLSSLRSEDTAVYFCAKAATSGWSPFDNWGQGTLVTVSS
VL: EIVLTQSPGTLSLSPGERATLSCRASQSISSSYFGWYQQKPGQAPRLLIYGASRRAAGIPDRFSCSGSGTDFTLTISRLEPEDFGVYYCQQYGSSPTFGQGTKVEIK
B6: antibody 315S (antibody, V domains shown)
VH: EVQLVESGGGVVQPGRSLRLSCAASGFTFKTYTMHWVRQAPGKGLEWVAVITDDGVNKKYADSVKGRFTISRDNSKNTLYLQMNSLRLEDTAVYYCARSVVVLAAYPLDYWGQGTMVTVSS
VL: DIQMTQSPSSLSASVGDRVTITCRASQTISTYLHWYQQRPGKAPKLLIYAASSLQSGVPSRVSGSGSGTDFTLTITSLQPEDFATYYCLQTYSLPLTFGGGTNVEIK
B7: antibody 203S (antibody, V domains shown)
VH: QVQLVQSGAEVKKPGSSVKVSCKASGGTFSSYAISWVRQAPGQGLEWLGRILPALGLANYAQKYQDRVKITADKSTSTAYMELSRLGSEDTAVYYCARDRWVGAARRGQYFDYWGQGTQVTVSS
VL: DIQMTQSPATLSASVGDRVTITCRASQSIGTWLAWYQQKPGKAPKLLIYDASSLESGVPPRFSGSGSETEFTLTISSLQPDDFATYYCHQYKSYSYTFGQGTKLEIK
B8: antibody 528S (antibody, V domains shown)
VH: EVQLAESGGGVVQPGRSLRLSCAASGFTFNSYGMHWVRQAPGKGLEWVAVIWDDGSKKYYADSVKGRFTISRDNSKNTLFLQMNSLRAEDTAVYYCARETIMFTFGEVIVSSRDNYYMDVWGKGTTVTVSS
VL: EIVLTQSPATLSLSPGERATLSCRASQSVSNYLAWYQQKPGQAPRLLIYDASTRAIGIPARFSGVGSGTDFTLTISSLEPEDFAVYYCQQRSNWPPLTFGGGTKVEIK
B9: antibody 354S (antibody, V domains shown)
VH: QVQLVQSGAEVKKPGASVKVSCKASGYSFASYYIHWVRQAPGQGLEWMGIINPSGGTTSYAQKFQGRVTMTRDTSTSTVYMELSSLGSEDTAVYYCARIVDRVTIYLNGVDNYWGQGTLVTVSS
VL: EIVMTQSPATLSVSPGERVTLSCRASQSVSSNLAWFQQTPGQAPRLLIYGASTRASGVPARFSGSGSGTEFTLTISSLQSEDFAVYYCLQYNNWPPGWKYGFGQGTKLEIK
B10: antibody 503S (antibody, V domains shown)
VH: QVQLVQSGAEVKKPGASVRVSCKASGYTFTSYYMHWVRQAPGQGLEWMGQINPSGGTTRYERKFQGRITVTRDTSTSTVYLELSSLRSEDTASYFCACLRDKVTYYDLWSGVDSVWGQGTLVTVSS
VL: DIQMTQSPSSLSASVGDRVTITCRASQDISTWLAWYQQKPEKAPKSLIYAASTLETGVPSRFSGSGSGTDFTLTISSLQPEDFATYYCEQYNGFPRTFGQGTKLDIK
B11: antibody 294S (antibody, V domains shown)
VH: QVQLQESGPGLVKPSQTLSLTCTVSGGSISSGGYHWSWIRQHPGKGLEWIGNIYYNGRTYYNPSLKSRVTISVDTSENEFSLKLSSVTAADTAVYYCARDRRRPRIGHDYGMDVWGQGTKVIVSS
VL: DIQMTQSPSSLSASVGDRVTISCRASQSISNFLNWYQQKPGQAPKLLIYTASNLQSGVPSRFSGSGSGTDFTLTISSLQPEDFATYYCQQIYNTGMYSFGQGTKLEIKR
B12: antibody 233S (antibody, V domains shown)
VH: EVQLVESGGGLGQPGGSLRLSCAASGFKFKIFGMNWVRQAPGKGLEWVSYISSRSSIIYYADSVKGRFTISRDDATNSLFLQMNSLRDEDTAMYYCVRDYNLIDFVWGSLFDYWGQGILVTVSS
VL: AIRMTQSPSSLSASTGDSVTITCRASQNIASYLAWYQQIPGKAPKLLIYVASTLQSGVPSRFSGSGSGTDFTLTISSLQSEDFATYYCQQYYRYPPTFGQGTKVEIK
B13: antibody 241S (antibody, V domains shown)
VH: QVQLVQSGSELKKPGASVKVSCKASGYTFTSYTVNWVRQAPGQGLEWMGWINTNTGNPTYAQGFTGRFVFSSDTSVSTAYLQISDLKAEDTAMYYCARHVAYDLWSGHTVTFDHWGQGTLVTVSS
VL: QSALTQPPSASGSPGQSVTISCTGTSSDVGAYNYVSWYQQHPGKAPKLIIYEVTKRPSGVPDRFSGSKSGNTASLTVSGLQAEDEADYYCSSKAGGKTYVFGTGTKVTVL

molecular target: T1, mucin domain-deleted Sudan GP (GPdMuc) (Sudan virus (SUDV), UniProt Q7T9D9 33-632); test: BLI competition on Sudan GPdMuc (upper table); competitor 316L
T1 construct: also called Sudan GPdMuc; GP(S)dMuc

Row | Binder | % inhibition of binding
1 | B1 | 6.38%
2 | B2 | 16.2%
3 | B3 | 9.35%

molecular target: T1, mucin domain-deleted Sudan GP (GPdMuc); test: BLI competition on Sudan GPdMuc (upper table); competitor 16F6

Row | Binder | % inhibition of binding
4 | B4 | 3.74%
5 | B5 | 9.63%
6 | B6 | 17.9%
7 | B7 | 10.8%
8 | B8 | 13.2%

molecular target: T1, mucin domain-deleted Sudan GP (GPdMuc); test: BLI competition on Sudan GPdMuc (upper table); competitor 15H10

Row | Binder | % inhibition of binding
9 | B1 | 15.8%
10 | B2 | 18.6%
11 | B3 | 17.4%

molecular target: T1, mucin domain-deleted Sudan GP (GPdMuc); test: ELISA on coated GP

Row | Binder | EC50
12 | B4 | 0.02 µg/mL
13 | B5 | 0.86 µg/mL
14 | B6 | 0.01 µg/mL
15 | B7 | 0.57 µg/mL
16 | B8 | 0.03 µg/mL

molecular target: T1, mucin domain-deleted Sudan GP (GPdMuc); test: ELISA on coated GP; remark: another data set of the same source

Row | Binder | EC50
17 | B1 | 0.101 µg/mL
18 | B9 | 0.0404 µg/mL
19 | B10 | 0.499 µg/mL
20 | B11 | 0.0266 µg/mL
21 | B2 | 0.23 µg/mL
22 | B3 | 0.378 µg/mL
23 | B12 | 0.195 µg/mL
24 | B13 | 0.331 µg/mL

molecular target: T1, mucin domain-deleted Sudan GP (GPdMuc); test: BLI competition on Sudan GPdMuc (lower table); competitor 316L

Row | Binder | % inhibition of binding
25 | B9 | 17.9%
26 | B10 | 23.3%
27 | B11 | 8.76%
28 | B12 | 12.5%
29 | B13 | 10.3%

molecular target: T1, mucin domain-deleted Sudan GP (GPdMuc); test: BLI competition on Sudan GPdMuc (upper table); competitor mAb166

Row | Binder | % inhibition of binding
30 | B4 | -6.27%
31 | B5 | 83.8%
32 | B6 | -2.64%
33 | B7 | 87.5%
34 | B8 | 82%

molecular target: T1, mucin domain-deleted Sudan GP (GPdMuc); test: BLI competition on Sudan GPdMuc (upper table); competitor 16F6; remark: another data set of the same source

Row | Binder | % inhibition of binding
35 | B1 | 76.2%
36 | B2 | 72.1%
37 | B3 | 90.8%

molecular target: T1, mucin domain-deleted Sudan GP (GPdMuc); test: BLI competition on Sudan GPdMuc (upper table); competitor mAb166; remark: another data set of the same source

Row | Binder | % inhibition of binding
38 | B1 | 8.08%
39 | B2 | 15.7%
40 | B3 | 5.74%

molecular target: T1, mucin domain-deleted Sudan GP (GPdMuc); test: BLI competition on Sudan GPdMuc (upper table); competitor 15H10; remark: another data set of the same source

Row | Binder | % inhibition of binding
41 | B4 | 4.35%
42 | B5 | 12.1%
43 | B6 | 6.61%
44 | B7 | 13.4%
45 | B8 | 14.7%

molecular target: T1, mucin domain-deleted Sudan GP (GPdMuc); test: BLI competition on Sudan GPdMuc (lower table); competitor mAb166

Row | Binder | % inhibition of binding
46 | B9 | 16.2%
47 | B10 | 20.7%
48 | B11 | 9.71%
49 | B12 | 14.4%
50 | B13 | 10.1%

molecular target: T1, mucin domain-deleted Sudan GP (GPdMuc); test: BLI competition on Sudan GPdMuc (lower table); competitor 15H10

Row | Binder | % inhibition of binding
51 | B9 | 18.9%
52 | B10 | 27.8%
53 | B11 | 15.7%
54 | B12 | 29.6%
55 | B13 | 38.3%

molecular target: T1, mucin domain-deleted Sudan GP (GPdMuc); test: BLI competition on Sudan GPdMuc (upper table); competitor 316L; remark: another data set of the same source

Row | Binder | % inhibition of binding
56 | B4 | 0.2%
57 | B5 | 39.4%
58 | B6 | 0.7%
59 | B7 | 10.3%
60 | B8 | 8.13%

molecular target: T1, mucin domain-deleted Sudan GP (GPdMuc); test: BLI competition on Sudan GPdMuc (lower table); competitor 16F6

Row | Binder | % inhibition of binding
61 | B9 | 18.7%
62 | B10 | 24.9%
63 | B11 | 13.3%
64 | B12 | 22.9%
65 | B13 | 28.2%
